According to patent US8445240B2, “Termite enzymes and uses thereof for in vitro conversion of lignin-containing materials to fermentable products” (University of Florida Research Foundation, Inc., priority 2009, dated 2013):
Each block holds one molecule with its values, some of them ahead of it.

Legend:
[1] = Lignin alkali metabolism by RfLacA, HPLC analysis; format: biochemical; settings: 1% w/v, pH 7.5, 16 hr, 32° C.
[2] = Glucose release from pine sawdust by recombinant enzymes and mixtures; format: biochemical; settings: 2% w/v, 18 hrs, 37° C., pH 7
Method: All reactions were performed in 0.1 M sodium acetate buffer containing 10 mM calcium chloride (pH 7). The two feedstock substrates were pine sawdust (=lignin+cellulose+hemicellulose) and beechwood xylan (=lignin+hemicellulose). Feedstocks were tested at 2% w/v (10 mg in 0.5 mL buffer). Reactions were run for 18 hrs at 37° C. with shaking at 220 rpm in vented 1.5 mL plastic tubes.
Protein volumes used per assay were 10 μL of each of the Cell-1, β-glucosidase, and Laccase 6 recombinant protein preparations. These loading volumes provided 8.5, 7.9 and 2.0 μg of each protein, respectively, per reaction. The storage buffer for Cell-1 and β-glucosidase was 0.1 M sodium acetate, 0.15 M sodium chloride, and 0.5 M calcium chloride (pH 5.8). The storage buffer for Laccase 6 was 0.1M boric acid, phosphoric acid, and acetic acid (pH 7.0).
Reactions were stopped after 18 hours by the addition of 10 μL of 0.2 Methylene-diamine tetra-acetic acid and centrifuged for 5 min at 16,000×g. Glucose detection was performed in triplicate on 125 μL aliquots of each reaction supernatant. The entire experiment was replicated three times. Glucose release was measured using the Autokit Glucose reagent kit (Wako Chemical, Richmond, Va.) at a volume of 125 μL per determination. Glucose was quantified based on absorbance at 505 nm relative to glucose standard curves. Standard curves were prepared in eight serial dilutions downward from 0.6 mM in sodium acetate-calcium chloride reaction buffer.

[3] = Characterisation of recombinant RfLacA and RfLacB isoforms; format: biochemical
[4] = Preliminary stability test of purified recombinant Cell-1; format: physicochemical; settings: incubation at 65° C. or 26° C. for 65 hr
From the text: An approximately 48 kDa band was present in baculovirus-infected larvae, but absent from uninfected and blank virus controls. Following purification and concentration the recombinant Cell-1 protein migrated as a single band at approximately 48 kDa. […] In addition to endoglucanase activity (the expected activity for Cell-1), exoglucanase and β-glucosidase activities were also investigated using the substrates pNPC and pNPG. All three activities were present in both uninfected and blank-virus-infected T. ni larvae, with exoglucanase and β-glucosidase activity being the strongest. However, only endoglucanase activity remained for purified Cell-1. In agreement with SDS-PAGE results, it was enriched at least 10-fold relative to clarified supernatants of infected larvae.

[5] = E. coli-expressed Cell-1 against exoglucanase and β-glucosidase substrates; format: biochemical; settings: Ni-purified active fractions
Method: Soluble fractions obtained after 19° C. IPTG induction were subjected to Ni-chromatography for purification. The His-tagged Cell-1 was retained on Ni columns and eluted in a single peak of CMC activity after the introduction of imidazole elution buffer.

[6] = Colorimetric β-1,4-endoglucanase assay of Cell-1 on CMC; format: biochemical; settings: BEVS-expressed; 100 mM sodium acetate pH 6.5, 25° C.
Method: Colorimetric β-1,4-endoglucanase enzyme assays: Six total substrates were tested: CMC (carboxymethyl cellulose), pNPG (p-nitrophenyl-beta-D-glucopyranoside), pNPC2 (p-nitrophenyl-beta-D-cellobioside), pNPC3 (p-nitrophenyl-beta-D-cellotrioside), pNPC4 (p-nitrophenyl-beta-D-cellotetraoside), and pNPC5 (p-nitrophenyl-beta-D-cellopentaoside). All assay methods were carried out under optimal conditions (Zhou et al., (2007) Gene 395:29-39).
(FIG. 7). For subsequent characterizations, the 1.5% CMC concentration was used. pH studies were performed by dissolving 1.5% CMC in two different buffer systems: 100 mM sodium acetate (pH 3-6.5) and 100 mM sodium phosphate (pH 7-10.5), as shown in FIG. 8. […] Temperature-cofactor studies were performed using 1.5% CMC dissolved in 100 mM sodium phosphate (pH 7) alone, plus 4 mM EDTA (final concentration), or plus 10 mM calcium chloride (final concentration). Pre-incubations took place for 0-5 days at 25° C. or 0-60 min at 60° C. or 70° C.; reactions were terminated by the combination of adding stop solution and boiling for 10 min, and then assays were read at 25° C. (FIG. 9).

glucose release from pine sawdust (in words) [2]: No glucose release was detectable
B1: RfLacA: recombinant R. flavipes gut laccase isoform 1, clone Lac6, SEQ ID NO.: 8 (protein)
chain: LIRLTIGQAVVSTQSTREAVVSTQSTRDTALSVYRSDAYIMLPCVLLACAIGVASATSVLLNSYLQPNDDIDRNTYLLNAKSNNCARICNGTEAPKICYYQWTIENYVTLSEACDNCPLNVTACYNAQCITADGYERSILSVNRKLPGPSIEVCLRDRVIVDITNNMAGRTTSIHWHGVFQKGSQYMDGVPMVTQCTIHEGDTFRYDFIANNEGTHFWHSHDGLQKLDGVTGNLVVRVPKNFDPNGQLYDFDLPEHKIFISDWLHLSADDHFPGLRATNPGQDANSFLINGRGRTLIGTQSTNTPYAQINVQWGRRYRLRIVGSLCTVCPTQLTIDGHKITVIATDGNSVAPARVDSLIIYSGERYDVVLEATNTEGSYWIHLKGLATCVGSRVYQLGVLQYENTTTNKLHALTPDPGYDGFPQPASYRVLNPENASCSIGSTGLCVTQLANSDPVPRDILTQLPDINYLLQFGFETFDSRSFFKAYDRYFVSPFLELLSSTVNNISFVSPPSPLLSQRGDVPDDILCPTGADGLPQCPGGNSYCTCVHVIKIKLGALVQIILSDQSPKSDLNHPFHIHGHAFYVLGMGQYAAGQTAQDLLNSLKSNVSSVSPAPVLKDTVAVPSGGYAIIKFRPKNPGYWFLHCHFLYHVATGMSVVLQVGETSDYPPTPDGFPKCGSFTPPVNTN
modifications: Reticulitermes flavipes; amino acid sequence Laccase Lacc-6
action on lignin alkali [1]: evidence of RfLacA action on lignin
oxidation of ABTS and syringaldazine [3]: unable to oxidize

glucose release from pine sawdust [2]: 3.70 pmol/min
B2: Cell-1: host-derived β-1,4-endoglucanase (GHF9) from Reticulitermes flavipes, SEQ ID NO.: 2; recombinant, BEVS or E. coli expressed (protein)
chain: MKVFVCLLSALALCQAAYDYKTVLSNSLLFYEAQRSGKLPSDQKVTWRKDSALNDKGQKGEDLTGGYYDAGDFVKFGFPMAYTVTVLAWGVIDYESAYSAAGALDSGRKALKYGTDYFLKAHTAANEFYGQVGQGDVDHAYWGRPEDMTMSRPAYKIDTSKPGSDLAAETAAALAATAIAYKSADATYSNNLITHAKQLFDFANNYRGKYSDSITDAKNFYASGDYKDELVWAAAWLYRATNDNTYLTKAESLYNEFGLGNWNGAFNWDNKISGVQVLLAKLTSKQAYKDKVQGYVDYLISSQKKTPKGLVYIDQWGTLRHAANSALIALQAADLGINAATYRAYAKKQIDYALGDGGRSYVVGFGTNPPVRPHHRSSSCPDAPAVCDWNTYNSAGPNAHVLTGALVGGPDSNDSYTDARSDYISNEVATDYNAGFQSAVAGLLKAGV
modifications: Reticulitermes flavipes; amino acid sequence Beta-1,4-endoglucanase (Cell-1)
notes: recombinant, BEVS or E. coli expressed
protein stability in purified form [4]: no protein degradation
activity against pNPC and pNPG [5]: no activity
Km against CMC [6]: 1.496 % w/v
Vmax against CMC [6]: 1.469 pmol/min/mg
